Reference: the domain aggregation screens of Martell et al. (2025)

Experiment: soluble fraction after stress (log2 fold change); higher = more stays soluble; pooled small domains, quantitative proteomics
Settings: stress: 75 degC
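Further: 20 min heating vs room temperature control held 20 min.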

Sequence	soluble fraction (log2)
HMELNELTSRELMVAEQVARGASNREISEALSISERTVKAHLSAAFEKLGVRDRVQLALAMNNIPT	-0.106
HMELNKNDLKIIKNISHIYPYFTPVKILQLILSKKFKTIDYNKILKSTSILTTDRSHLYYILNN	0.0816
HMELPSDEHLDDISHLARIGHKKGLQEKIIQLEQQGLASAEFIQQLKTLTNNFQFEKIIQWVDSEL	-0.055
HMELRIREILESKDIKVSSLAETVGITRANMSNIVNGKSTPSLETLEKIANALGVDITELFA	-0.432
HMELSAEGWVDGTGVRMRASASTDSEVVRVTEDGESLDITGVSGTWYRVTAGGVSGYIRSDYVSLEEP	-0.0699
HMELSAQEIGRRLRIARENADIRQDDAAQVIGMSRPTLVSIEKGVRRVRIQEIQMLARHYGVSVNALLR	-2.2
HMELSVTDRTRQIRHILKEKGRVEFTSLFEELTKPYVIVTFLSVLEMSKNNELMITQDKTFGSITLEMKG	-0.446
HMELVIGESLAVELLRPGKEDGQALGYLPDGSMVVVNNGRAFVGKRVTAEIIGVIRSAGGKMVFSNLLGE	-3.36
HMEMDITIQMRTLVEELNRASDAYYNGRGELMTDYEWDAKFDQLKQLESQSGVVLPDSPTHRV	-0.244
HMEMELNHVARRAGRLSGFLKGELRLSTGLMNRLKWSNAILVNGKPARTNAQVEPGDRITVILD	-2.35
HMEMLQENIRNLRKAKGWSQEELAIKLNVVRQTVSKWEKGLSVPDSQMLIRIADELDTTVAILLG	-0.705
HMEMLQRFIFLENVSSTQVESAIKELHPNLNLKRVKLSFPGADTVLLKGPKQDLELAEELIRHLDRSE	-0.652
HMEMPGGVMRTLSTIAYNQPVLQSKLVKVRGPRAYEDVHILRDMGLVSARSVGQTVELSTTPKFAEQF	-0.622
HMENEIFVPKVFMDWYNKVDKSIKVFKAFNLIEKETDPRLKEWVEDNQDEFAKIWLGQLLPVV	-0.155
HMENFIPDDPKRIEIGMSVLHQRFGKGKVMQLEGNLPDMKATVNFEGEGQKQLLLKYARLKIV	-0.99
HMENIDVGQDYKVTMNTIQNLMKTGLVTGTQYKELLREMGVHSGMGAITAQQHQIALDFLNKTMDSA	≥ 1.04
HMENIIKISASYEGLRVDQFLSNYLKISRSKVQKYISEEKIFLNNVPTKTNRKVKLDDIISYNLNF	-3.01
HMENITTILRSIKNEIKKNSTFVGDDFVNQARSMNQGQIKEKSIYGHGTKKEIEELRDEGVDVLNIPWIT	-0.104
HMENKIIKNAAHATLKVKKDAGIEITTELIREAVILFHRIYSPNDNPNINWERIINELESHYT	-3.66
HMENLFPDYTMQDYRIVRSELSSKFKVQTVPVTTATATENKIVRQEPEAGSRITEGMTVILYYSIGPE	-1.51
HMENLRLSELTVERGHRLAGRTLADIASAPNSPKYLIVLIQRGQETVIPTGSTVILPGDVLILAQS	-1.7
HMENMSFGTKLYTWLYGKLVGSDEIGNKYYTNINDPSDLNAKRWVIFNGEIEASKIPPHWHAWLHKSIDK	-0.918
HMENMTLGQRIQALRKQHGLSQEGLGERLGVSRQAISRWEMDGAVPEVDKLIAMARLFGVSLNQLLGVE	-0.193
HMENNIPANIKALIISYVNQNYPGAVIHSIERNSNGTYDVEIYYNNREYDLLFDAQGNFISGNVDDQ	-0.0333

Sequence	soluble fraction (log2)
HMENNIRLSVPDTESGQRIDSYLAEQIPGLTRSAVQNLLAEQAVTIAGKAVKKNYKLLGGEDILVQLPEVR	0.217
HMENPPISVVIPPSFRGQRIDKALGSLIGDYSRSKIQQWLQSGLVQSAGEPLLPKYTVLGNEQILIAVPS	-0.13
HMENQGEDMRQQVKALVNADKTNITKLATATGYSRSTISMYLAGNYKGDVEAVERRLEEYMKTQG	-0.0512
HMENSYSVEDLALKAAISVDTIRYYQGLGLISPPQKNGRRAIYGNDHISRLEEIKKLAFEGFSLRQISLL	0.111
HMENTIPSVIGRTLSDGVFLLESYGYVKGNVSEEFSEMPIGVIIRQFPGAGSAAEAGTRVDLVVSKGEEIV	0.124
HMENVALYIRLKSMASVYDDVHGYNIEWIKSMIGLSIDIEKLRTVLEDVSWITKVEEDVYSFSKNAKPFE	-4.31
HMENVQLRNFAIKATEAGIIKLSSDQRTFMWASNQKKLMTVPFDEHPYSAMAQFFKTDEGLAVFKSIEKKL	-1.47
HMEPADALVAALVARGVSPSTARITVKQYPATRIQPQLEVFDYLVAQKDPKVSRNPPGFLLSAIRGEYA	-0.718
HMEPAPELTPREQQVLARIALGMTDKAIAEELGVSHQTVRNHVARIYQKIKVHSRSQAVVWAREKGI	-1.47
HMEPDEESVRLKEEILSRIDYWHTTMPYMGTRKLAAKLRTEGYAVGRKLVRTYMREMGIHAVYP	-0.103
HMEPELSVDMKPLDGLLLAIKKELQAAQMYTRLARASADAEQKMVFEQLANMEKGHKARLEDIYT	-0.079
HMEPESTMIEISETLTNERLDRYLATKLPNVSRGGIQRLLREGNILVNGKKAKPTQHPVAGQKIEITWPNP	-0.0291
HMEPEYIGELEKRIKKLKTHTYSSIDRLMKSISKKYKITTQVLHDDFKNKHNEIPDEWVKQF	-0.126
HMEPKIKQIVPNVVNYPVEDAKNVLVNSGLIVQIRGQGNIVYDQVPKGGAEVTRGTTVILDLNPPPGA	-0.0576
HMEPKQIEVPNLVGISSAAARQTLSALGLHAVVKDSIWSETERIDTVLEQNPAGGALIKPEGTVYLRVSR	-0.0959
HMEPLIRTLEEQIAEKIKNYRKGTRVYDAEHVDRWISQLPEEERMVVLTETNRLLEQNYVDQAKLME	-0.0452
HMEPMLEIFDAKIDLADVLAVESGLVRLRGGAEVTSPRVDVDAGARLELDSGARLNVERLSY	0.155
HMEPMTDQQILEGFAEFKRQNPDLMNRPATQAIVNLTLPGGTPISFRSGAGAAALNQYLESIGMRAGP	0.0601
HMEPPAPAPDIPYPSRVTVRREVDGWPHYYGTWTRTPPVLGYEGIWLVGVSLDGKVQFVPVDDVTIA	-1.17
HMEPREEFTFADLRANGLNGTAAAAGRRAALGAALGIGYGNAKQFLRRLNHYGVTRSEWEAALADLDE	-0.752
HMEPSERYKALQSLLPDYAKRLKKKGVTRHQLFLEYRLTHPDGYARSRFGTYFQAYLALSHP	-2.32
HMEPTLVVARDKDAKSPLVAKLMKELGVDAAPRVIVDDSVIGGAKLSHNHTEIDATYKTALINLYQAIT	0.19
HMEPVFSDPARQTLYQEVMELPAKYRVPLYLYYYEGYKVDEVGELLGLNASTVQTRLARARAKLKIQL	-0.489
HMEQETVTVPDLVGKDVVAAQAELHEMGLSGKPDGTGTTVVSQFPVAGARVLKHTNVILYTED	0.296

Sequence	soluble fraction (log2)
HMEQFRENIVRIYMEIDDYENGAKFLEMGNNRDASFYELAGDFYKYFGENELANENYDLAISA	-0.629
HMEQIPEEYKKIYSLITDIPININDIAKKSLLELREVSSKLTMLELDGKVVKLPGNMYIRGDL	-0.195
HMEQKELAPLVPQEDGSVKLTNLAGYSMREVAAALEGGNLSLIPIGSGTSWKQDPAPGTVLQPGNTVTVYF	-0.297
HMEQPLSLKLANNAFSRFWGNANPAEKDTQPNNSDIAKWVIEQSGGKITQTMADKIAQIIRPEWAA	0.372
HMEQSGDELKTWVDQAIAAYPEKVKEYQQGKKGLLALFIGEVMKRSKGTADPKKVNQLVTEALS	-0.164
HMEQTMNDMLKLVDLLPQNQQDIVRMRFYENMSFKEIAESNQISINTALGRMRYAILNLRKYAAERNL	-2.59
HMEQVLDEEIIKSAVQKVIKDNPSAVSDYKAGKKTAFQFLIGKAMAELQGKGHPGKISELLEKE	0.474
HMEQVQQIPIEELFPFKEHPFKVLDDEAMQRTVESVAQYGVLAPLIARPRPEGGYEIISGHRRQHAAELYR	-0.0469
HMEQWVSIEVEPGIRLDVALTEATQKSRSFIQNLIAEQRVLVNGQPKKANYKVRPGDHVELNYPEPT	-0.29
HMEREKTYLMPDLIGRKAERVVPRLQASGFKVEDIRHVYYPGLEKGVIVRQSPPGGYPIQKRNLINLEVS	-0.581
HMERLKKYLDDVRTFLPGTNPKKVDEILREIESHVLERAEREHGEVNDNAVAMSIKEYGSPEEVAARYYEG	0.809
HMERLSNQVYAILKEMIADYRFNPGARINVEQIAKEVGASRTPVWEAVHRLVQEGLLENIPNRGVFML	-1.45
HMERNAEDFAAKYQEIYQDMFRFALYTLKNRQEAEDVVSETVLDAWKGIEGLKNESAFSAWMFRILVNK	0.126
HMESADEESNALMYDGLLAMRGKRYEVALEFFDALVKHDPDFAEGWNKRATVLYLLGRYERSIADIKQVLA	0.239
HMESAEQTGEELAARVNVLQTVSQALARELGREAAVEELADKMKMTVDEVKDIMKMAMDAMSM	0.294
HMESAESRVDLIGMIGEAITDLRPAGTAQFGEERIDVVSESEWITEGSTVKVVSAEGYRHVVRVME	-0.358
HMESENANVNRAMLTGIASMHAGQLETALNKFNEVIQLAPDFAEGWNKRATIFYLMKKFDRSVNDIAQTLK	0.0648
HMESFGVAIKRLREAQGWTRADFLRQLGKTGYYMHATTLKRIEEGEQIAKVHEAVIISRLFGVTVEEMG	-3.1
HMESGFEAVREVARHGSFANAAKALGVSGPAVSRQVKSLEERLGLVFFHRTTRMVTLTEAGQQLVDTLD	0.0837
HMESGNLIFTNAPIADVVNAIETRYGKKLQASNQTSDLQFTGIFKNTDEFSTVVKTIEIALGLQFEV	-1.67
HMESIEAGTFELDNKTSIDISEDEANLLNKMFEELTETNSKDMYGVMVADEAGFNEILEFAKENL	0.00321
HMESNWLTYAKRIQSIADTGMTFAVDDFDKERYQELADISSKMLADLSNIPIGRIENLLGPLGQ	-1.11
